Source: patent US20230270823A1
Read-outs that look alike come from different tables or passages of the source.

Legend:
Test in all cases: cell-based or functional assay
[1] = target: IL-15Rβ/γ chain (IL-2Rβ and common gamma chain) on human CD8+ T cells and NK cells (human) (UniProt P14784)
[2] = target: IL-15Rβ/γ chain (IL-2Rβ and common gamma chain) on human CD8+ T cells and NK cells (human) (UniProt P14784); remark: listed apart in the source
[3] = target: IL-15Rβ/γ chain (IL-2Rβ and common gamma chain) on human CD8+ T cells and NK cells (human) (UniProt P14784); remark: listed apart in the source
[4] = target: IL-15Rβ/γ chain (IL-2Rβ and common gamma chain) on human CD8+ T cells and NK cells (human) (UniProt P14784); remark: listed apart in the source

Sequence of IL-15Rβ/γ chain (IL-2Rβ and common gamma chain) on human CD8+ T cells and NK cells (human) (P14784 27-551, chain 1 of 2): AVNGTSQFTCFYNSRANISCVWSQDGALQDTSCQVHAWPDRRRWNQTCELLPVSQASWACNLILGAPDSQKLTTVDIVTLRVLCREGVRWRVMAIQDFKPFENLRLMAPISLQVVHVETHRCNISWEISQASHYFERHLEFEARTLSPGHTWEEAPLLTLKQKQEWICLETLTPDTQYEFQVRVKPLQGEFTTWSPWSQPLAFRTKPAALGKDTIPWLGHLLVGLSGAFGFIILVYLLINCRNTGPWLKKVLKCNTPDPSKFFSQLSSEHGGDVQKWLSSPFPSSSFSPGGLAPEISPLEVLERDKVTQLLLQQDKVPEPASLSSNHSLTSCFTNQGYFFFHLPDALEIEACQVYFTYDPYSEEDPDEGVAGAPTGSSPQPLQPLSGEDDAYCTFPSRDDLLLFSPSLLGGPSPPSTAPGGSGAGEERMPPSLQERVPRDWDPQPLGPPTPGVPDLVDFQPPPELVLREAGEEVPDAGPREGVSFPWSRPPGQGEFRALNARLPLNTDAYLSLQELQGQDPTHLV
Sequence of IL-15Rβ/γ chain (IL-2Rβ and common gamma chain) on human CD8+ T cells and NK cells (human) (P31785 23-369, chain 2 of 2, further chain): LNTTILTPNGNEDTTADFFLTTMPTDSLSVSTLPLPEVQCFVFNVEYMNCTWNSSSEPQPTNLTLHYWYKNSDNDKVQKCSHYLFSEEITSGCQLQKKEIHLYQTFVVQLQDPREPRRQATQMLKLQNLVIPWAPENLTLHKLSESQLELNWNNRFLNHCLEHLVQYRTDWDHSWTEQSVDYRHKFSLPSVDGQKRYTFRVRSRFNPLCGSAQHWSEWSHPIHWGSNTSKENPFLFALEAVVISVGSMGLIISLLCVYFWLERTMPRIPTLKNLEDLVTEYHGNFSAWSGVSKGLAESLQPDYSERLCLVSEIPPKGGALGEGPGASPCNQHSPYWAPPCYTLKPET

B1: W369-BMK1 (XENP24306) (Fc fusion, not shown: a dimerising Fc or GST)
chain: NWVNVISDLKKIEDLIQSMHIDATLYTESNVHPSCKVTAMKCFLLELQVISLESGDASIHDTVQDLIILANNSLSSNGNVTESGCKECEELEEKNIKEFLQSFVHIVQMFINTS
modifications: IL-15Rα-Fc chain, linker, Fc lack entries
EC50, % Ki67 expression, human CD8+ T cells [1]: 203 nM
EC50, % Ki67 expression, human NK cells [1]: 35.5 nM
Fold reduced (EC50, % Ki67), human CD8+ T cells [1]: 441 fold
Fold reduced (EC50, % Ki67), human NK cells [1]: 355 fold
EC50, % Ki67 expression, human CD8+ T cells [2]: 28.5 nM
EC50, % Ki67 expression, human NK cells [2]: 5.12 nM
Fold reduced (EC50, % Ki67), human CD8+ T cells [2]: 155 fold
Fold reduced (EC50, % Ki67), human NK cells [2]: 244 fold
EC50, % Ki67 expression, human CD8+ T cells [3]: 145 nM
EC50, % Ki67 expression, human NK cells [3]: 39 nM
Fold reduced (EC50, % Ki67), human CD8+ T cells [3]: 176 fold
Fold reduced (EC50, % Ki67), human NK cells [3]: 231 fold
EC50, % Ki67 expression, human CD8+ T cells [4]: 651 nM
EC50, % Ki67 expression, human NK cells [4]: 74.3 nM
Fold reduced (EC50, % Ki67), human CD8+ T cells [4]: 2170 fold
Fold reduced (EC50, % Ki67), human NK cells [4]: 2480 fold
